Where two headings read alike, the source gives them in different places. *1 amine or outer side, *2 acyl side, *3 side chain or, on linkers, in order; H or OH if unused. Where a SMILES comes first, the peptide text is derived from it. Bridges are numbered along the chain shown (N, C = ends). [ ]: non-standard residue; d: D form. The star is where a group is joined. TATA = O=C(CC[*:1])N1CN(C(=O)CC[*:2])CN(C(=O)CC[*:3])C1; NOTA = O=C(O)CN1CCN(CC(=O)O)CCN(CC(=O)*)CC1; Hyp = O=C(O)[C@@H]1C[C@@H](O)CN1; hArg = N=C(N)NCCCC[C@H](N)C(=O)O; Pen = CC(C)(S)[C@H](N)C(=O)O; βAla = NCCC(=O)O; Sar = CNCC(=O)O
Legend:
PC-3 tumor-bearing mice = conditions: 4 h, dissected tissue uptake ratio
Procedure: (§1) In vivo radiobiological distribution assay: mice in the PET/CT imaging group were sacrificed immediately after the end of 4 h imaging, and mice in the inhibition group were sacrificed after 1 h imaging. Tissue samples of tumor, blood, heart, lung, liver, spleen, kidney, stomach, intestine, bone, muscle, and brain were collected by dissection, weighed and their radioactive counts were recorded. The probe uptake value in each tissue and organ of each experimental animal is expressed as radioactivity per gram of tissue as a percentage of the dose administered (% ID/g).

in vivo = conditions: mouse, iv, 11.1 MBq, total radioactivity; for tissue uptake at 4 h: dissected tissue, single iv 11.1 MBq
Procedure: as §1
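Also: dissected tissues were weighed and their radioactivity counted, uptake given as percent of administered dose per gram, tissue ratios derived from these values.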

CC(C)C[C@@H]1NC(=O)[C@@H]2CSCCC(=O)N3CN(CN(C3)C(=O)CCSC(C)(C)[C@@H](C(N)=O)NC(=O)[C@H](CCCCNC(=N)N)NC(=O)[C@H](Cc3c[nH]c4ccccc34)NC(=O)[C@@H](CC(=O)O)NC(=O)[C@@H]3CCCN3C(=O)[C@H](Cc3c[nH]cn3)NC1=O)C(=O)CCSC[C@H](NC(=O)[C@@H]1CC(=O)NCCCC[C@H](NC(=O)CN(C)C(=O)CN(C)C(=O)CN(C)C(=O)CN(C)C(=O)CN(C)C(=O)CN(C)C(=O)CN(C)C(=O)CN(C)C(=O)CN(C)C(=O)CN(C)C(=O)CCNC(=O)CN3CCN(CC(=O)O)CCN(CC(=O)O)CC3)C(=O)N[C@@H](CCCCNC(=N)N)C(=O)N1)C(=O)N1C[C@H](O)C[C@H]1C(=O)N[C@@H](CC(C)C)C(=O)N[C@@H](C(C)C)C(=O)N[C@@H](CC(N)=O)C(=O)N1CCC[C@H]1C(=O)N[C@@H](CC(C)C)C(=O)N2 [Example 3] ({NOTA-βAla}-[Sar][Sar][Sar][Sar][Sar][Sar][Sar][Sar][Sar][Sar]K[hArg]DC[Hyp]LVNPLCLHP[dD]W[hArg][Pen]-NH2; lactam 11-13; linker 14-21-28 via TATA)
Tumor/blood (PC-3 tumor-bearing mice; mouse S1): 24.89
Tumor/bone (PC-3 tumor-bearing mice; mouse S1): 4.39
Tumor/brain (PC-3 tumor-bearing mice; mouse S1): 44.40
Tumor/heart (PC-3 tumor-bearing mice; mouse S1): 16.45
Tumor/intestine (PC-3 tumor-bearing mice; mouse S1): 12.02
Tumor/kidney (PC-3 tumor-bearing mice; mouse S1): 0.08
Tumor/liver (PC-3 tumor-bearing mice; mouse S1): 7.63
Tumor/lung (PC-3 tumor-bearing mice; mouse S1): 10.25
Tumor/muscle (PC-3 tumor-bearing mice; mouse S1): 11.01
Tumor/spleen (PC-3 tumor-bearing mice; mouse S1): 7.58
Tumor/stomach (PC-3 tumor-bearing mice; mouse S1): 22.84
Tumor/blood (PC-3 tumor-bearing mice; mouse S2): 3.88
Tumor/bone (PC-3 tumor-bearing mice; mouse S2): 1.30
Tumor/brain (PC-3 tumor-bearing mice; mouse S2): 40.18
Tumor/heart (PC-3 tumor-bearing mice; mouse S2): 7.47
Tumor/intestine (PC-3 tumor-bearing mice; mouse S2): 7.64
Tumor/kidney (PC-3 tumor-bearing mice; mouse S2): 0.04
Tumor/liver (PC-3 tumor-bearing mice; mouse S2): 4.34
Tumor/lung (PC-3 tumor-bearing mice; mouse S2): 4.78
Tumor/muscle (PC-3 tumor-bearing mice; mouse S2): 2.89
Tumor/spleen (PC-3 tumor-bearing mice; mouse S2): 4.03
Tumor/stomach (PC-3 tumor-bearing mice; mouse S2): 14.71
Tumor/blood (PC-3 tumor-bearing mice; mouse S3): 36.90
Tumor/bone (PC-3 tumor-bearing mice; mouse S3): 7.02
Tumor/brain (PC-3 tumor-bearing mice; mouse S3): 91.90
Tumor/heart (PC-3 tumor-bearing mice; mouse S3): 30.12
Tumor/intestine (PC-3 tumor-bearing mice; mouse S3): 27.31
Tumor/kidney (PC-3 tumor-bearing mice; mouse S3): 0.10
Tumor/liver (PC-3 tumor-bearing mice; mouse S3): 8.30
Tumor/lung (PC-3 tumor-bearing mice; mouse S3): 19.01
Tumor/muscle (PC-3 tumor-bearing mice; mouse S3): 19.97
Tumor/spleen (PC-3 tumor-bearing mice; mouse S3): 10.00
Tumor/stomach (PC-3 tumor-bearing mice; mouse S3): 34.54
tissue uptake at 4 h (in vivo; nude mice, heart, radioactive uptake: Heart, mouse S1): 0.31 %ID/g
tissue uptake at 4 h (in vivo; nude mice, intestine, radioactive uptake: Intestine, Mean ± SD of S1-S3): 0.31 ± 0.1 %ID/g
tissue uptake at 4 h (in vivo; nude mice, intestine, radioactive uptake: Intestine, mouse S1): 0.42 %ID/g
tissue uptake at 4 h (in vivo; nude mice, intestine, radioactive uptake: Intestine, mouse S2): 0.29 %ID/g
tissue uptake at 4 h (in vivo; nude mice, intestine, radioactive uptake: Intestine, mouse S3): 0.22 %ID/g
tissue uptake at 4 h (in vivo; nude mice, muscle, radioactive uptake: Muscle, Mean ± SD of S1-S3): 0.5 ± 0.23 %ID/g
tissue uptake at 4 h (in vivo; nude mice, muscle, radioactive uptake: Muscle, mouse S1): 0.46 %ID/g
tissue uptake at 4 h (in vivo; nude mice, muscle, radioactive uptake: Muscle, mouse S2): 0.76 %ID/g
tissue uptake at 4 h (in vivo; nude mice, muscle, radioactive uptake: Muscle, mouse S3): 0.3 %ID/g
tissue to tissue ratio at 4 h (in vivo; nude mice, tumor and spleen): 7.2 ± 3
tissue to tissue ratio at 4 h (in vivo; nude mice, tumor/blood): 21.9 ± 16.7
tissue to tissue ratio at 4 h (in vivo; nude mice, tumor/bone): 4.23 ± 2.87
tissue to tissue ratio at 4 h (in vivo; nude mice, tumor/brain): 58.8 ± 28.7
tissue to tissue ratio at 4 h (in vivo; nude mice, tumor/intestine): 15.7 ± 10.3
tissue to tissue ratio at 4 h (in vivo; nude mice, tumor/muscle): 11.3 ± 8.54
tissue to tissue ratio at 4 h (in vivo; nude mice, tumor/stomach): 24 ± 9.97
tissue uptake at 4 h (in vivo; nude, blood, radioactive uptake: Blood, Mean ± SD of S1-S3): 0.31 ± 0.22 %ID/g
tissue uptake at 4 h (in vivo; nude, blood, radioactive uptake: Blood, mouse S1): 0.2 %ID/g
tissue uptake at 4 h (in vivo; nude, blood, radioactive uptake: Blood, mouse S2): 0.56 %ID/g
tissue uptake at 4 h (in vivo; nude, blood, radioactive uptake: Blood, mouse S3): 0.16 %ID/g
tissue uptake at 4 h (in vivo; nude, bone, radioactive uptake: Bone, Mean ± SD of S1-S3): 1.23 ± 0.43 %ID/g
tissue uptake at 4 h (in vivo; nude, bone, radioactive uptake: Bone, mouse S1): 1.15 %ID/g
tissue uptake at 4 h (in vivo; nude, bone, radioactive uptake: Bone, mouse S2): 1.69 %ID/g
tissue uptake at 4 h (in vivo; nude, bone, radioactive uptake: Bone, mouse S3): 0.84 %ID/g
tissue uptake at 4 h (in vivo; nude, brain, radioactive uptake: Brain, Mean ± SD of S1-S3): 0.08 ± 0.03 %ID/g
tissue uptake at 4 h (in vivo; nude, brain, radioactive uptake: Brain, mouse S1): 0.11 %ID/g
tissue uptake at 4 h (in vivo; nude, brain, radioactive uptake: Brain, mouse S2): 0.05 %ID/g
tissue uptake at 4 h (in vivo; nude, brain, radioactive uptake: Brain, mouse S3): 0.06 %ID/g
tissue uptake at 4 h (in vivo; nude, heart, radioactive uptake: Heart, Mean ± SD of S1-S3): 0.26 ± 0.06 %ID/g
tissue uptake at 4 h (in vivo; nude, heart, radioactive uptake: Heart, mouse S2): 0.29 %ID/g
tissue uptake at 4 h (in vivo; nude, heart, radioactive uptake: Heart, mouse S3): 0.2 %ID/g
tissue uptake at 4 h (in vivo; nude, kidney, radioactive uptake: Kidney, Mean ± SD of S1-S3): 57 ± 5.7 %ID/g
tissue uptake at 4 h (in vivo; nude, kidney, radioactive uptake: Kidney, mouse S1): 62.7 %ID/g
tissue uptake at 4 h (in vivo; nude, kidney, radioactive uptake: Kidney, mouse S2): 51.3 %ID/g
tissue uptake at 4 h (in vivo; nude, kidney, radioactive uptake: Kidney, mouse S3): 57.1 %ID/g
tissue uptake at 4 h (in vivo; nude, liver, radioactive uptake: Liver, Mean ± SD of S1-S3): 0.62 ± 0.11 %ID/g
tissue uptake at 4 h (in vivo; nude, liver, radioactive uptake: Liver, mouse S1): 0.66 %ID/g
tissue uptake at 4 h (in vivo; nude, liver, radioactive uptake: Liver, mouse S2): 0.5 %ID/g
tissue uptake at 4 h (in vivo; nude, liver, radioactive uptake: Liver, mouse S3): 0.71 %ID/g
tissue uptake at 4 h (in vivo; nude, lung, radioactive uptake: Lung, Mean ± SD of S1-S3): 0.42 ± 0.1 %ID/g
tissue uptake at 4 h (in vivo; nude, lung, radioactive uptake: Lung, mouse S1): 0.49 %ID/g
tissue uptake at 4 h (in vivo; nude, lung, radioactive uptake: Lung, mouse S2): 0.46 %ID/g
tissue uptake at 4 h (in vivo; nude, lung, radioactive uptake: Lung, mouse S3): 0.31 %ID/g
tissue uptake at 4 h (in vivo; nude, spleen, radioactive uptake: Spleen, Mean ± SD of S1-S3): 0.6 ± 0.06 %ID/g
tissue uptake at 4 h (in vivo; nude, spleen, radioactive uptake: Spleen, mouse S1): 0.66 %ID/g
tissue uptake at 4 h (in vivo; nude, spleen, radioactive uptake: Spleen, mouse S2): 0.54 %ID/g
tissue uptake at 4 h (in vivo; nude, spleen, radioactive uptake: Spleen, mouse S3): 0.59 %ID/g
tissue uptake at 4 h (in vivo; nude, stomach, radioactive uptake: Stomach, Mean ± SD of S1-S3): 0.18 ± 0.04 %ID/g
tissue uptake at 4 h (in vivo; nude, stomach, radioactive uptake: Stomach, mouse S1): 0.22 %ID/g
tissue uptake at 4 h (in vivo; nude, stomach, radioactive uptake: Stomach, mouse S2): 0.15 %ID/g
tissue uptake at 4 h (in vivo; nude, stomach, radioactive uptake: Stomach, mouse S3): 0.17 %ID/g
tissue to tissue ratio at 4 h (in vivo; nude, tumor and heart): 18 ± 11.4
tissue to tissue ratio at 4 h (in vivo; nude, tumor and lung): 11.3 ± 7.18
tissue uptake at 4 h (in vivo; nude, tumor, radioactive uptake: Tumor, Mean ± SD of S1-S3): 4.38 ± 1.94 %ID/g
